This note sets out measurements from patent US20040096852A1, “Mixed fibrils” (priority 2000, published 2004).

Ends that are not written are not given here. * marks the point of attachment. Dansyl = CN(C)c1cccc2c(S(=O)(=O)*)cccc12

The conditions of data set [1]: pH 2.5. An excerpt: Where the proteins forming the fibrils are unrelated the kinetics of fibril formation are likely to be different.
The nature of data set [2]: Solubility of peptide under labeling conditions. In kind it is physicochemical. How it is done:
TTR10-19 labeling with fluorescein. The N-terminal cysteine residue of TTR10-19 was the target for labeling by the thiol-reactive fluorophore fluorescein-5-maleimide (F5M; Molecular Probes, Eugene, Oreg.). TTR10-19 was resuspended at 1 mg/ml in H2O, and the cysteine residue reduced by the addition of a 10-fold molar excess of tris-(2-carboxyethyl) phosphine (TCEP; Molecular Probes, Eugene, Oreg.) and incubation for 1 h at room temperature. F5M in DMSO was added to the peptide solution to give a 10-fold molar excess of fluorophore over peptide in a final concentration of 10% DMSO. Under these conditions TTR10-19 was fully soluble. The mixture was incubated overnight at 4° C. to ensure maximum labeling. The labeling mixture was then applied to a disposable SepPak C-18 reverse-phase chromatography column (Waters, Milford, Mass.) and washed with H2O/CH3CN (90:10 v/v). TCEP and unreacted label eluted in the wash. The peptide was then eluted from the column with H2O/CH3CN (40:60 v/v), and a mixture of labeled and unlabelled peptide was detected by MALDI-TOF mass spectrometry. […]
TTR105-115 labeling with dansyl chloride. […] The peptide was then eluted from the column with H2O/CH3CN (50:50 v/v), and a mixture of labeled and unlabelled peptide was detected by MALDI-TOF mass spectrometry. […]

Data set [3] concerns the target T1, TTR10-19 (human).
T1 construct: Unlabelled synthetic peptide, present as amyloid fibrils in the assays; also called TTR10-19 fibrils
T1 peptide: CPLMVKVLDA
Kind of data set: fluorescence anisotropy of labeled peptide co-assembled into fibrils (free peptide 0.03).
Protocol: (§1) All anisotropy measurements were monitored over 10 sec to rule out photobleaching phenomena and then averaged.
(§2) Panel a: F5M-TTR₁₀₋₁₉ incorporated into TTR₁₀₋₁₉ fibrils (dashed line) is compared with F5M-TTR₁₀₋₁₉ (solid line) in 20 mM sodium phosphate buffer, pH 1.0 at a final labeled peptide concentration of 0.3 μM. Panel b: dansyl-TTR₁₀₅₋₁₁₅ incorporated into TTR₁₀₅₋₁₁₅ fibrils (dashed line) is compared with dansyl-TTR₁₀₅₋₁₁₅ (solid line) in water at a final labeled peptide concentration of 0.9 μM. The fluorescence spectra have been normalised. […] Fibrils were pelleted by centrifugation at 9500 g for 15 min, the pellet resuspended in H₂O pH 2 and deposited on a glass slide and imaged using fluorescence light microscopy. […] TTR₁₀₋₁₉ containing 1% (w/w) dansyl-TTR₁₀₅₋₁₁₅ was resuspended at a final total peptide concentration of 10 mg/ml in 10% CH₃CN adjusted to pH 2 with TFA. The sample was incubated at 37° C. for 10 days after which time the CD spectrum indicated the formation of significant O-sheet structure, and fibrils were observed by EM.

Data set [4] deals with T2, Bovine insulin (bovine, UniProt P01317 85-105; P01317 25-54).
T2 construct: mature; Bought protein, assembled into amyloid fibrils at low pH and high temperature; also called insulin fibrils
The data set is described as above.
Protocol: as §1, §2

Data set [5] addresses T3, TTR105-115 (human).
T3 construct: Unlabelled synthetic peptide, present as amyloid fibrils in the assays
T3 peptide: YTIAALLSPYS
Described as above.
Protocol: as §1, §2

In data set [6] the target is T1, TTR10-19. Kind of data set: fluorescence anisotropy of labeled peptide co-assembled into fibrils (free peptide 0.02).
Data set [7] concerns the target T2, Bovine insulin. The description is as above.
Data set [8] addresses T3, TTR105-115. Described as above.

T2 sequence (P01317 85-105 limits assumed, chain 1 of 2): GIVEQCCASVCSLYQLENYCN
T2 sequence (P01317 25-54 limits assumed, chain 2 of 2): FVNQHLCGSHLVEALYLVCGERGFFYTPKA

YTIAALLSPYS [TTR105-115]: in data set [1], the time remaining soluble was determined as 48 h. Also, in data set [2] (1 mg/ml in H2O/CH3CN (80:20 v/v), dansyl chloride, 10% DMSO, pH 9.0), the solubility entry was “fully soluble”.

For the molecule CPLMVKVLDA [TTR10-19], in data set [1], the time remaining soluble came to 48 h. For the same molecule, the solubility entry in data set [2] (1 mg/ml in H2O, TCEP, F5M, final 10% DMSO) was “fully soluble”.

B1: F5M-TTR10-19 (peptide)
peptide: C(fluorescein‑5‑maleimide)PLMVKVLDA
notes: Synthetic peptide derived from human transthyretin; also called fluorescein-5-maleimide labeled TTR10-19
As for B1, the entries for the “fluorescence anisotropy on incorporation into fibrils” value with TTR10-19 [3], with Bovine insulin [4] and in the data set with TTR105-115 [5] were 0.17, 0.16 and 0.22, respectively.

B2: dansyl-TTR105-115 (peptide)
peptide: Dansyl-YTIAALLSPYS
notes: Synthetic peptide derived from human transthyretin
Turning to B2, the “fluorescence anisotropy on incorporation into fibrils” value with TTR10-19 [6] came out at 0.16; with Bovine insulin [7] it was 0.19; in the data set with TTR105-115 [8] it was 0.13.
